Data from PMC9226502.

B1: MutL^WT (Escherichia coli MutL protein, wild type) [Escherichia coli] / MutS [not stated] (parent)
chain 1: MPIQVLPPQLANQIAAGEVVERPASVVKELVENSLDAGATRIDIDIERGGAKLIRIRDNGCGIKKDELALALARHATSKIASLDDLEAIISLGFRGEALASISSVSRLTLTSRTAEQQEAWQAYAEGRDMNVTVKPAAHPVGTTLEVLDLFYNTPARRKFLRTEKTEFNHIDEIIRRIALARFDVTINLSHNGKIVRQYRAVPEGGQKERRLGAICGTAFLEQALAIEWQHGDLTLRGWVADPNHTTPALAEIQYCYVNGRMMRDRLINHAIRQACEDKLGADQQPAFVLYLEIDPHQVDVNVHPAKHEVRFHQSRLVHDFIYQGVLSVLQQQLETPLPLDDEPQPAPRSIPENRVAAGRNHFAEPAAREPVAPRYTPAPASGSRPAAPWPNAQPGYQKQQGEVYRQLLQTPAPMQKLKAPEPQEPALAANSQSFGRVLTIVHSDCALLERDGNISLLSLPVAERWLRQAQLTPGEAPVCAQPLLIPLRLKVSAEEKSALEKAQSALAELGIDFQSDAQHVTIRAVPLPLRQQNLQILIPELIGYLAKQSVFEPGNIAQWIARNLMSEHAQWSMAQAITLLADVERLCPQLVKTPPGGLLQSVDLHPAIKALKDE
chain 2: MSAIENFDAHTPMMQQYLRLKAQHPEILLFYRMGDFYELFYDDAKRASQLLDISLTKRGASAGEPIPMAGIPYHAVENYLAKLVNQGESVAICEQIGDPATSKGPVERKVVRIVTPGTISDEALLQERQDNLLAAIWQDSKGFGYATLDISSGRFRLSEPADRETMAAELQRTNPAELLYAEDFAEMSLIEGRRGLRRRPLWEFEIDTARQQLNLQFGTRDLVGFGVENAPRGLCAAGCLLQYAKDTQRTTLPHIRSITMEREQDSIIMDAATRRNLEITQNLAGGAENTLASVLDCTVTPMGSRMLKRWLHMPVRDTRVLLERQQTIGALQDFTAGLQPVLRQVGDLERILARLALRTARPRDLARMRHAFQQLPELRAQLETVDSAPVQALREKMGEFAELRDLLERAIIDTPPVLVRDGGVIASGYNEELDEWRALADGATDYLERLEVRERERTGLDTLKVGFNAVHGYYIQISRGQSHLAPINYMRRQTLKNAERYIIPELKEYEDKVLTSKGKALALEKQLYEELFDLLLPHLEALQQSASALAELDVLVNLAERAYTLNYTCPTFIDKPGIRITEGRHPVVEQVLNEPFIANPLNLSPQRRMLIITGPNMGGKSTYMRQTALIALMAYIGSYVPAQKVEIGPIDRIFTRVGAADDLASGRSTFMVEMTETANILHNATEYSLVLMDEIGRGTSTYDGLSLAWACAENLANKIKALTLFATHYFELTQLPEKMEGVANVHLDALEHGDTIAFMHSVQDGAASKSYGLAVAALAGVPKEVIKRARQKLRELESISPNAAATQVDGTQMSLLSVPEETSPAVEALENLDPDSLTPRQALEWIYRLKSLV

Variants of: B1
Experiment: BLI
Conditions: with MutS, 100 nM MutS, end-blocked DNA substrate with a single mismatch, read off a plot; for response: top green curve (taken as 150 nM MutL), peak at about 200 s, parent: 3.3

| Variant | koff (19 nM MutL, parent: 0.0053) | koff (37 nM MutL, parent: 0.0032) | koff (75 nM MutL, parent: 0.0031) | koff (150 nM MutL, parent: 0.0033) | response |
| --- | --- | --- | --- | --- | --- |
| chain 1 H270A | 0.0063 s⁻¹ | 0.0047 s⁻¹ | 0.0038 s⁻¹ | 0.0035 s⁻¹ | 2.7 nm |
| chain 1 H270A H319A | 0.0096 s⁻¹ | 0.0092 s⁻¹ | 0.0082 s⁻¹ | 0.0075 s⁻¹ | 2.1 nm |
| chain 1 H319A | 0.006 s⁻¹ | 0.0046 s⁻¹ | 0.0036 s⁻¹ | 0.0038 s⁻¹ | 2.7 nm |
